Experimental data from PMC2987719.

How the values were obtained:
Settings in all cases: remark: other sources report otherwise
[1] = target: myc-LRRK2 (human wild-type full-length leucine rich repeat kinase 2, myc-tagged) (human) (UniProt Q5S007); experiment: glycerol velocity gradient
[2] = target: myc-LRRK2 (human wild-type full-length leucine rich repeat kinase 2, myc-tagged) (human) (UniProt Q5S007); experiment: SEC
[3] = target: myc-LRRK2 (human wild-type full-length leucine rich repeat kinase 2, myc-tagged) (human) (UniProt Q5S007); experiment: native gel or EMSA

Measured: stoichiometry N

myc-LRRK2 (human wild-type full-length leucine rich repeat kinase 2, myc-tagged), Q5S007 1-2527
2: all assays above
